B1: E. coli PNPase core (domain or fragment, UniProt P05055 1-552, looked up)
chain: MLNPIVRKFQYGQHTVTLETGMMARQATAAVMVSMDDTAVFVTVVGQKKAKPGQDFFPLTVNYQERTYAAGRIPGSFFRREGRPSEGETLIARLIDRPIRPLFPEGFVNEVQVIATVVSVNPQVNPDIVAMIGASAALSLSGIPFNGPIGAARVGYINDQYVLNPTQDELKESKLDLVVAGTEAAVLMVESEAQLLSEDQMLGAVVFGHEQQQVVIQNINELVKEAGKPRWDWQPEPVNEALNARVAALAEARLSDAYRITDKQERYAQVDVIKSETIATLLAEDETLDENELGEILHAIEKNVVRSRVLAGEPRIDGREKDMIRGLDVRTGVLPRTHGSALFTRGETQALVTATLGTARDAQVLDELMGERTDTFLFHYNFPPYSVGETGMVGSPKRREIGHGRLAKRGVLAVMPDMDKFPYTVRVVSEITESNGSSSMASVCGASLALMDAGVPIKAAVAGIAMGLVKEGDNYVVLSDILGDEDHLGDMDFKVAGSRDGISALQMDIKIEGITKEIMQVALNQAKGARLHILGVMEQAINAPRGDISEFA
notes: polynucleotide phosphorylase (PNPase) core lacking the KH and S1 domains, E. coli, aa 1–552 by the methods (1–550 in the results and a legend); also called PNPase core (1–550); PNPase core (aa 1–552); source: E. coli Evo21(DE3), purified (Ni-NTA, intein cleavage, HIC, Q, Superdex 200); not shown: Mycobacterium xenopi GyrA intein, C-terminal, cleaved; His8, C-terminal, cleaved
B2: S. enterica PNPase core (domain or fragment, Salmonella enterica serovar Typhimurium, UniProt Q8ZLT3 1-552, looked up)
chain: MLNPIVRKFQYGQHTVTLETGMMARQATAAVMVSMDDTAVFVTVVGQKKAKPGQDFFPLTVNYQERTYAAGRIPGSFFRREGRPSEGETLIARLIDRPVRPLFPEGFVNEVQVIATVVSVNPQVNPDIVAMIGASAALSLSGIPFNGPIGAARVGYINDQYVLNPTQDELKESKLDLVVAGTEAAVLMVESEAELLSEDTMLGAVVFGHEQQQVVIQAINDLVKEAGKPRWDWQPEAVNDALNARVAALAESRLSDAYRITDKQERYAQVDVIKSETIEQLIAEDETLDANELGEILHAIEKNVVRSRVLAGEPRIDGREKDMIRGLDVRTGVLPRTHGSALFTRGETQALVTATLGTARDAQVLDELMGERTDSFLFHYNFPPYSVGETGMVGSPKRREIGHGRLAKRGVLAVMPDMDKFPYTVRVVSEITESNGSSSMASVCGASLALMDAGVPIKAAVAGIAMGLVKEGDNYVVLSDILGDEDHLGDMDFKVAGSRDGISALQMDIKIEGITKEIMQVALNQAKGARLHILGVMEQAINAPRGDISEFA
notes: polynucleotide phosphorylase (PNPase) core, Salmonella enterica serovar Typhimurium, aa 1–552; also called Salmonella typhimurium polynucleotide phosphorylase core; source: E. coli Evo21(DE3), purified (Ni-NTA, intein cleavage, HIC, Q, Superdex 200); not shown: Mycobacterium xenopi GyrA intein, C-terminal, cleaved; His8, C-terminal, cleaved
B3: E. coli RNase E 921–1061-muGFP (domain or fragment, UniProt P21513 921-1061, looked up)
chain: AVTEQPQVITESDVAVAQEVAEQAEPVVEPQEETADIEEVVETAEVVVAEPEVVAQPAAPVVAEVAAEVETVAAVEPEVTVEHNHATAPMTRAPAPEYVPEAPRHSDWQRPTFAFEGKGAAGGHTATHHASAAPARPQPVE
notes: Only residues 1003–1057 are built in the model; also called RNase E-muGFP-Chis; RNE-muGFP-CHis; source: E. coli Evo21(DE3), purified (Ni-NTA, amylose, TEV, Q, Superdex 200); not shown: MBP, N-terminal, cleaved; muGFP, C-terminal, kept; His8, C-terminal, kept

Experiments:
PNPase core = conditions: X-ray, PDB: 3GCM; cited from earlier work
Text: Previous studies identified a PNPase binding motif encompassing residues 1039–1061 at the very C-terminus of E. coli RNase E (Fig. 1). […] Following the β-strand, there is a stretch of eight residues containing three prolines and two charged amino acids. The RNase E residues 1048–1061 will be referred to as ‘β1 motif’ hereafter (Fig. 2A). Multiple sequence alignment s ...

[1] = molecular target: the molecule itself; experiment: cryo-EM structure; PNPase core with RNase E peptide 960–1061; resolution of the peptide insufficient to align the sequence
[2] = molecular target: the molecule itself; experiment: cryo-EM structure; purified PNPase core and RNase E-muGFP-CHis mixed 1:2, complex separated on Superdex 200 Increase in 20 mM Tris–HCl pH 8.0, 25 mM MgCl2, 150 mM KCl, 1 mM TCEP; 8 mM CHAPSO; E. coli and S. enterica proteins
E. coli PNPase core = molecular target: B1; experiment: as above; conditions: both partners purified

For “RNase E residues 1021–1061: peptide encompassing RNase E residues 1021–1061 in crystal structure with PNPase (EAPRHSDWQRPTFAFEGKGAAGGHTATHHASAAPARPQPVE; UniProt P21513 1021-1061, looked up, fragment)”, the “binding mode in crystal structure” value (PNPase core) is listed as “forms a β-strand that extends an exposed β-sheet of the PNPase core”.

In the case of B1, the “stoichiometry N” value [1] is reported as 3.

For B2, the “stoichiometry N” value [2] was 3.

In the case of B3, the “stoichiometry N” value (E. coli PNPase core) is reported as 1 RNase E peptide per PNPase trimer.

— article PMC12489471, “A multi-dentate, cooperative interaction between endo- and exo-ribonucleases within the bacterial RNA degradosome” (Nucleic Acids Research, 2025)
